Two molecules from patent publication US11673947B2, “Target tissue-specific antigen-binding molecule” (Chugai Seiyaku Kabushiki Kaisha, priority 2012, dated 2023) can be followed below.

As usually defined, the Kd is a measure of binding affinity in units of concentration. As usually defined, the Tm is the temperature at the midpoint of the melting transition.

A short description of data set [1]: Biacore T200, binding of D12 and variants to adenosine (steady state, Formula 2). Conditions: 15° C., specific response with/without 20 μmol/l ADP. The text has this: (§1) Biacore T200 (GE Healthcare) was used to analyze the interaction of D12, in which the constant region of IgG is linked to the variable region of clone ATNLSA1-4_D12 with ATP- and adenosine-binding activity, in antigen-antibody reaction. Sensor chip CM5 or CM4 (GE Healthcare) was immobilized with an appropriate amount of protein A (Life technologies) by amine coupling. The antibody of interest was captured by the chip to allow interaction with ATP (Wako), adenosine (Wako), or ADP (adenosine diphosphate) (Wako) as an antigen. The running buffer used was 50 mM Tris-HCl (Takara, T903), 500 mM NaCl, 0.01% (w/v) Tween20. The antigen was allowed to interact for 30 seconds at a flow rate of 30 μl/min, and was dissociated for 30 seconds. The interaction with the antigen was assessed at 15° C. The antigen was diluted using the same running buffer.
(§2) The dissociation constant KD (M) was calculated based on the association rate constant ka (1/Ms) and dissociation rate constant kd (1/s), both of which are kinetic parameters calculated from the sensorgram obtained by the measurement. Alternatively, the dissociation constant KD (M) was calculated using steady state analysis. Each parameter was calculated using the Biacore T200 Evaluation Software (GE Healthcare).
In addition, the binding response was separately assessed in the presence of 20 μmol/l ADP. […]
On the technique in general: In SPR one partner is held on a chip, and binding of the other changes the refractive index at the surface.

Data set [2] is described as follows: Phage ELISA, binding to 2′-adenosine-PEG-biotin, 5′-adenosine-PEG-biotin and ATP-PEG-biotin. On the procedure: From single colonies of E. coli obtained by panning as described in the Example above, culture supernatants containing phages were collected according to a conventional method (Method Mol. Biol. (2002) 178, 133-145). The collected culture supernatants were treated by ultrafiltration using NucleoFast 96 (MACHERY-NAGEL). 100 μl of the culture supernatants were added to each well of NucleoFast 96 and centrifuged at 4500 g for 45 minutes to remove flow through. After addition of 100 μl of H2O, the NucleoFast 96 was washed by centrifugation at 4500 g for 30 minutes. After addition of 100 μl of TBS, the NucleoFast 96 was allowed to stand for five minutes at room temperature. Then, phage suspensions were collected from the supernatants.
Purified phages, to which TBS was added, were subjected to ELISA by the following procedure. […] Then, the developed color was assessed by measuring absorbance at 450 nm.
Next, for the purpose of confirming to which antigen of 2′-adenosine-PEG-biotin, 5′-adenosine-PEG-biotin, and ATP-PEG-biotin these clones have binding ability, the purified phages diluted with TBS were subjected to ELISA by the following procedure. […] Then, the developed color was assessed by measuring absorbance at 450 nm.

Data set [3] can be described thus: Competitive phage ELISA, inhibition of binding to biotin-labeled antigens by ATP. As to conditions: ATP from an equal amount up to 10000 times that of the antigen. On the procedure: ATNLSA1-4_D12 and PF1 were each diluted with TBS and subjected to ELISA by the following procedure.
A StreptaWell 96 microtiter plate (Roche) was coated at room temperature for one hour with 100 μl of TBS containing biotin-labeled antigens (a mixture of 5′-adenosine-PEG-biotin and ATP-PEG-biotin). After the antigens were removed by washing each well of the plate with TBST, the wells were blocked with 250 μl of 2% skim milk/TBS for one hour or more. 2% skim milk/TBS was removed, and then the prepared, purified phages were added to each well. The plate was allowed to stand at room temperature for one hour to allow binding of the antibody-displaying phages to the antigens in each well. […] For the competition of the immobilized antigen with ATP, the plate was allowed to stand at room temperature for one hour. Then, after TBST wash, an HRP-conjugated anti-M13 antibody (Amersham Pharmacia Biotech) diluted with TBS was added to each well. The plate was incubated for one hour. Following TBST wash, the TMB single solution (ZYMED) was added to each well. The chromogenic reaction in the solution of each well was terminated by adding sulfuric acid. Then, the developed color was assessed by measuring absorbance at 450 nm.

The nature of data set [4]: Biacore T200, binding of D12 to ADP. Conditions: 50 mM Tris-HCl, 500 mM NaCl, 0.01% Tween20, 15° C.
Description: as §1, §2

Data set [5] can be described thus: Biacore T200, binding of D12 and ATNLSA1-4_D12 variants to ATP. Conditions: 50 mM Tris-HCl, 500 mM NaCl, 0.01% Tween20, 15° C.
Description: as §1, with “The antigen was allowed to interact for 30 seconds at a flow rate of 30 μl/min, and was dissociated for 30 seconds.” left out, “The antigen was diluted using the same running buffer.” left out
as §2
Each variant expressed and purified by the method described in Example 7-1 was assayed for its ATP and adenosine binding by the same method as described in Example 7-6 using Biacore. Based on the assay result, the affinity of each variant for ATP was calculated as a KD value. […]

A further data set is described as follows: Tm measurement by DSC. Type of data set: physicochemical. On the procedure: Then, for the purpose of improving antibody stability, the framework sequence of ATNLSA1-4_D12 was restored to the germ line sequence VH3-21 by introducing into the framework sequence of ATNLSA1-4_D12, alterations Gln01Glu, Gln05Val, Asp10Gly, Asn30Ser, Leu48Val, and Asn58Tyr (numerals represent Kabat numbers). ATNLSA1-4_D12 variants expressed and purified by the method described in Example 7-1 were measured for their Tm by DSC. DSC measurement was carried out by a method known to those skilled in the art.
For orientation: Differential scanning calorimetry records heat flow against a reference as temperature is scanned.

Another data set addresses human IL6 (Homo sapiens, UniProt P05231). Kind of data set: Phage ELISA, binding to human IL6 in the presence or absence of adenosine and/or ATP. Conditions: with or without 10 mM adenosine and ATP. On the procedure: Phage-containing culture supernatants were collected according to a conventional method (Methods Mol. Biol. (2002) 178, 133-145) from single colonies of E. coli obtained by the method described above. The collected culture supernatants were treated by ultrafiltration using NucleoFast 96 (MACHERY-NAGEL). 100 μl of the culture supernatants were added to each well of NucleoFast 96, and it was centrifuged (4500 g for 45 minutes) to remove flow through. After addition of 100 μl of H2O, the NucleoFast 96 was washed by centrifugation (4500 g for 30 minutes). Finally, 100 μl of TBS was added, and the NucleoFast 96 was allowed to stand for five minutes at room temperature. A phage suspension was collected from the supernatant in each well of the NucleoFast 96.
The purified phages, to which TBS or (adenosine+ATP)/TBS was added, were subjected to ELISA by the following procedure. A StreptaWell 96 microtiter plate (Roche) was coated overnight with 100 μl of TBS containing biotin-labeled antigen. […] Then, the developed color was assessed by measuring absorbance at 450 nm. […]
First, a StreptaWell 96 microtiter plate (Roche) was coated at room temperature for one hour or more with 100 μl of TBS containing a biotin-labeled antigen. […] Then, the developed color was assessed by measuring absorbance at 450 nm (FIGS. 25, 26, and 27). […]
(An ELISA detects its analyte on a solid surface through an enzyme-linked reagent.)

human IL6, sequence (P05231 30-212): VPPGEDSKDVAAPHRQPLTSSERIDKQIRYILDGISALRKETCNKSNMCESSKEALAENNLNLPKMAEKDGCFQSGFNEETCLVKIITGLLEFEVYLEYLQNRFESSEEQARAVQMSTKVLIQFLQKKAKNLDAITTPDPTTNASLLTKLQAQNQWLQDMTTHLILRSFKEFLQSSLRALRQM

B1: ATNLSA1-4_D12: ATP/adenosine-binding antibody from human antibody library; variable regions SEQ ID NOs: 46 and 47 (antibody, listed as Homo sapiens, V domains shown)
VH: QVQLQESGGDLVKPGGSLRLSCAASGFTFNTYTMNWVRQAPGKGLEWLSSISSRSNYINYADSVKGRFTISRDNAKNSLYLQMNSLRAEDTAVYYCARFGRKGDLNWVFDYWGQGTLVTVSS
VL: QSALTQPPSASGSPGQSVTISCTGTSSDVGGYNYVSWYQQHPGKAPKLMIYEVSKRPSGVPDRFSGSKSGNTASLTVSGLQAEDEADYFCSSYAGSNNVVFGGGTKLTVL
With B1, the equilibrium dissociation constant (Kd) in data set [1] is 1100 µM; in data set [4] it was 0.25 µM; in data set [5], 8.5 µM. In data set [2], the “binding to biotin-labeled antigens (phage ELISA)” value was “had the ability to bind to both 5′-Adenosine-PEG-biotin and ATP-PEG-biotin”. The “binding to antigen in the presence of ATP” value in data set [3] is given as “inhibited in an ATP concentration-dependent manner”. In addition, the Tm in the data set “Tm measurement by DSC” is 74.37 °C.

B2: I6RLSA1-6_011: clone with antigen-binding activity to human IL-6 in the absence of ATP and adenosine (antibody, V domains shown)
VH: EVQLVESGGDLVKPGGGLRLSCAASGFTFSGYTMHWVRQAPGKGLEWVSSISSRSSHISYADSVKGRFTISRDNAKNSLYLQMNSLRAEDTAVYYCARFGRKYRMNWVFDYWGQGTLVTVSS
VL: QSALTQPPSASGSPGQTVTISCTGTSTDVGFYNYVSWYQQHPGKAPKLMIYDTSKRPSGVPDRFSGSKSGNTASLTVSGLQAEDEADYFCSTVTGIWSVGFGGGTKLTVL
For the molecule B2, the “antigen-binding activity to human IL-6 in the absence of ATP and adenosine” value with human IL6 is reported as “had an antigen-binding activity”.
